B1: glmS ribozyme (parent)
chain: AUAAAAGCGCCAGAACUACAGAAAUGUAGUUGACGAGGAGGAGGUUUAUCGAAUUUUCGGCGGAUGCCUCCAAA

Common to all, as to details: with glucosamine-6-phosphate
The variants in series [1] derive from B1. The series is described as follows: kcat; higher = faster cleavage; RNA array. An outline of the steps:
(§1)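 Using a hybridised Cy3 probe at 37 °C, barcoded ribozyme variants transcribed in situ by E. coli RNA polymerase on sequenced MiSeq chips were monitored across tiles imaged over ~14 h. The flow contained glucosamine-6-phosphate from 40 μM to 10 mM in HEPES/KCl/Mg(OAc)2 buffer. Signals were normalised to baseline and to non-cleaving reference variants before per-tile medians were fit to one- or two-exponential decays to yield kobs. Weighted Michaelis–Menten fits across concentrations gave kcat and KM.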

In series [2] the parent is B1. Nature of the series: self-cleavage kobs at 640 uM GlcN6P; higher = faster cleavage; RNA array. The procedure, abridged:
as §1

In series [3] the parent is B1. The series is described as follows: self-cleavage kobs at 2500 uM GlcN6P; higher = faster cleavage; RNA array. An outline of the steps: as §1
The variants in series [4] derive from B1. Nature of the series: self-cleavage kobs at 10000 uM GlcN6P; higher = faster cleavage; RNA array. An outline of the steps: as §1
In series [5] the parent is B1. The series is described as follows: KM; higher = weaker cofactor use; RNA array. The procedure, abridged:
as §1

Variants of B1 are the subject of series [6]. Nature of the series: self-cleavage kobs at 40 uM GlcN6P; higher = faster cleavage; RNA array. The procedure, abridged: as §1
Series [7] covers variants of B1. Nature of the series: self-cleavage kobs at 160 uM GlcN6P; higher = faster cleavage; RNA array. An outline of the steps: as §1

± gives the standard error. For part of these data: Fewer inactive variants are shown than the library holds.

In general, kcat refers to the maximal rate divided by the concentration of active sites. The KM is the concentration of substrate that gives half-maximal velocity.

On to G32C U69C, for which the catalytic constant (kcat) in series [1] came out at 3.02e-05 ± 3.3e-06 s⁻¹. Further, the “self-cleavage kobs at 640 uM GlcN6P” value in series [2] is 3.47e-05 ± 1.7e-05 s⁻¹. In series [3], the “self-cleavage kobs at 2500 uM GlcN6P” value came to 3.15e-05 ± 1.3e-05 s⁻¹. The “self-cleavage kobs at 10000 uM GlcN6P” value in series [4] was 2.58e-05 ± 1.2e-05 s⁻¹.
Taken in the same sequence, the figures for U31C A52G C67U were 0.000208 ± 9.4e-05 s⁻¹, 9.07e-05 ± 3.5e-05 s⁻¹, 6.61e-05 ± 1.4e-05 s⁻¹ and 0.000147 ± 2.6e-05 s⁻¹.
Consider G13C A39U, for which the kcat in series [1] is 6.85e-05 ± 4.7e-06 s⁻¹. Moreover, the KM in series [5] was determined as 4180 ± 820 µM. Moreover, the “self-cleavage kobs at 40 uM GlcN6P” value in series [6] was under 1e-05 s⁻¹. Also, the “self-cleavage kobs at 2500 uM GlcN6P” value in series [3] was found to be 2.64e-05 ± 1e-05 s⁻¹. Moreover, the “self-cleavage kobs at 10000 uM GlcN6P” value in series [4] turned out to be 4.82e-05 ± 7.1e-06 s⁻¹.
As for G37A A39G, the kcat in series [1] worked out at 0.00599 ± 0.00079 s⁻¹. In addition, the Michaelis constant (KM) in series [5] stood at 3900 ± 740 µM. Further, the “self-cleavage kobs at 40 uM GlcN6P” value in series [6] came to 6.85e-05 ± 7.9e-06 s⁻¹. In series [7], the “self-cleavage kobs at 160 uM GlcN6P” value turned out to be 0.000243 ± 4.5e-05 s⁻¹. The “self-cleavage kobs at 640 uM GlcN6P” value in series [2] was 0.00068 ± 0.00012 s⁻¹. Further, the “self-cleavage kobs at 2500 uM GlcN6P” value in series [3] is 0.00235 ± 0.0003 s⁻¹. Also, the “self-cleavage kobs at 10000 uM GlcN6P” value in series [4] turned out to be 0.00437 ± 0.00039 s⁻¹.
A33U U45A: the kcat in series [1] worked out at 0.000201 ± 3.4e-05 s⁻¹. Also, in series [5], the KM worked out at 4400 ± 1700 µM. In addition, in series [6], the “self-cleavage kobs at 40 uM GlcN6P” value is under 1e-05 s⁻¹. Moreover, in series [3], the “self-cleavage kobs at 2500 uM GlcN6P” value worked out at 7.97e-05 ± 1.2e-05 s⁻¹. The “self-cleavage kobs at 10000 uM GlcN6P” value in series [4] amounted to 0.000137 ± 1.5e-05 s⁻¹.
As to G37A U69G, the kcat in series [1] turned out to be 2.13e-05 ± 3.7e-06 s⁻¹.
For C11U A12U, in series [1], the kcat came out at 0.00624 ± 0.00051 s⁻¹. For the same variant, the KM in series [5] was 1290 ± 150 µM. In addition, the “self-cleavage kobs at 40 uM GlcN6P” value in series [6] was 0.000179 ± 1.8e-05 s⁻¹. Also, the “self-cleavage kobs at 160 uM GlcN6P” value in series [7] was found to be 0.000886 ± 0.00016 s⁻¹. Besides, the “self-cleavage kobs at 640 uM GlcN6P” value in series [2] was determined as 0.00209 ± 0.00035 s⁻¹. The “self-cleavage kobs at 2500 uM GlcN6P” value in series [3] came out at 0.00418 ± 0.00075 s⁻¹. Besides, the “self-cleavage kobs at 10000 uM GlcN6P” value in series [4] turned out to be 0.00547 ± 0.00057 s⁻¹.
In the case of C11U A12C, the kcat in series [1] came out at 9.58e-05 ± 3.4e-06 s⁻¹. For the same variant, the KM in series [5] came to 1050 ± 120 µM. In addition, the “self-cleavage kobs at 640 uM GlcN6P” value in series [2] worked out at 3.76e-05 ± 7e-06 s⁻¹. In addition, the “self-cleavage kobs at 2500 uM GlcN6P” value in series [3] was 6.24e-05 ± 1.2e-05 s⁻¹. Also, the “self-cleavage kobs at 10000 uM GlcN6P” value in series [4] stood at 8.81e-05 ± 9e-06 s⁻¹.
For the variant A15C C16A, the kcat in series [1] stood at 0.00213 ± 0.00077 s⁻¹. Moreover, in series [6], the “self-cleavage kobs at 40 uM GlcN6P” value was 5.77e-05 ± 8.7e-06 s⁻¹. For the same variant, in series [7], the “self-cleavage kobs at 160 uM GlcN6P” value worked out at 0.000139 ± 3e-05 s⁻¹. Moreover, the “self-cleavage kobs at 640 uM GlcN6P” value in series [2] worked out at 0.000522 ± 8e-05 s⁻¹. In addition, the “self-cleavage kobs at 2500 uM GlcN6P” value in series [3] turned out to be 0.000888 ± 0.00013 s⁻¹. Besides, the “self-cleavage kobs at 10000 uM GlcN6P” value in series [4] stood at 0.00248 ± 0.00031 s⁻¹.
With A6U G40A, the kcat in series [1] amounted to 5.46e-05 ± 2e-06 s⁻¹. Moreover, the KM in series [5] amounted to 1650 ± 280 µM. Also, the “self-cleavage kobs at 2500 uM GlcN6P” value in series [3] is 3.37e-05 ± 1e-05 s⁻¹. Further, in series [4], the “self-cleavage kobs at 10000 uM GlcN6P” value worked out at 4.67e-05 ± 7e-06 s⁻¹.
G9A C16A: the kcat in series [1] is under 1e-05 s⁻¹. Besides, the KM in series [5] turned out to be 31.6 ± 7.6 µM.
For the variant U30A U45A C50U, the kcat in series [1] was under 1e-05 s⁻¹. Moreover, in series [7], the “self-cleavage kobs at 160 uM GlcN6P” value was under 1e-05 s⁻¹.
For the variant U30A C58G, the kcat in series [1] was 5.56e-05 ± 1.8e-05 s⁻¹. Also, in series [3], the “self-cleavage kobs at 2500 uM GlcN6P” value was determined as 8.28e-05 ± 2.5e-05 s⁻¹. Also, the “self-cleavage kobs at 10000 uM GlcN6P” value in series [4] was found to be 4.77e-05 ± 1.1e-05 s⁻¹.
On to G60C C71A, for which, in series [1], the kcat is under 1e-05 s⁻¹. Also, in series [6], the “self-cleavage kobs at 40 uM GlcN6P” value was under 1e-05 s⁻¹.
With C68G C71U, in series [1], the kcat is under 1e-05 s⁻¹.
Regarding C58G G63C, in series [1], the kcat is under 1e-05 s⁻¹. Moreover, the “self-cleavage kobs at 40 uM GlcN6P” value in series [6] was under 1e-05 s⁻¹. Also, in series [3], the “self-cleavage kobs at 2500 uM GlcN6P” value was under 1e-05 s⁻¹.
For the variant G29A U56G, in series [1], the kcat was determined as 0.00237 ± 0.00067 s⁻¹. Moreover, the KM in series [5] was found to be 1720 ± 760 µM. Besides, in series [6], the “self-cleavage kobs at 40 uM GlcN6P” value is 6.78e-05 ± 1.3e-05 s⁻¹. Besides, in series [2], the “self-cleavage kobs at 640 uM GlcN6P” value was determined as 0.000577 ± 9.1e-05 s⁻¹. Also, in series [3], the “self-cleavage kobs at 2500 uM GlcN6P” value was determined as 0.00129 ± 0.00021 s⁻¹. Moreover, the “self-cleavage kobs at 10000 uM GlcN6P” value in series [4] was 0.00257 ± 0.00053 s⁻¹.
A14G A33G G37U: the kcat in series [1] is under 1e-05 s⁻¹. Also, the “self-cleavage kobs at 40 uM GlcN6P” value in series [6] was under 1e-05 s⁻¹. For the same variant, in series [7], the “self-cleavage kobs at 160 uM GlcN6P” value is under 1e-05 s⁻¹.
Take U46G C50U U69A: the kcat in series [1] is 3.77e-05 ± 1.1e-05 s⁻¹. Moreover, the “self-cleavage kobs at 10000 uM GlcN6P” value in series [4] is 4.11e-05 ± 1.3e-05 s⁻¹.
For A39C U45A A53U C70U, the kcat in series [1] was determined as 4.71e-05 ± 2.2e-06 s⁻¹. In addition, the Michaelis-Menten constant (KM) in series [5] came out at 835 ± 200 µM. Further, in series [4], the “self-cleavage kobs at 10000 uM GlcN6P” value worked out at 4.34e-05 ± 1.8e-05 s⁻¹.
